The values below come from the supplement of paper PMC7125110.

± gives the standard error. For part of these data: Variants at the floor of the assay were thinned out.

For orientation: kcat means the number of substrate molecules converted per active site and unit of time at saturation. The KM is the substrate concentration at which the rate is half of its maximum.

The labels stand for the following.
B1: glmS ribozyme (parent)
chain: AUAAAAGCGCCAGAACUACAGAAAUGUAGUUGACGAGGAGGAGGUUUAUCGAAUUUUCGGCGGAUGCCUCCAAA

What all share (details): with glucosamine-6-phosphate
In data set [1] the parent is B1. Nature of the data set: kcat; higher = faster cleavage; RNA array. An outline of the steps: (§1)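 Barcoded ribozyme variants were transcribed in situ on sequenced MiSeq chips by E. coli RNA polymerase. At 37 °C, a hybridised Cy3 probe tracked them while glucosamine-6-phosphate (40 μM to 10 mM) in HEPES/KCl/Mg(OAc)2 buffer flowed in and tiles were imaged over ~14 h. Per-tile medians of signals normalised to baseline and to non-cleaving reference variants were fit to one- or two-exponential decays, giving kobs. kcat and KM came from weighted Michaelis–Menten fits across concentrations.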

Variants of B1 are the subject of data set [2]. In words: KM; higher = weaker cofactor use; RNA array. An outline of the steps: as §1
The variants in data set [3] derive from B1. Nature of the data set: self-cleavage kobs at 40 uM GlcN6P; higher = faster cleavage; RNA array. The method in brief:
as §1

In data set [4] the parent is B1. Nature of the data set: self-cleavage kobs at 160 uM GlcN6P; higher = faster cleavage; RNA array. An outline of the steps: as §1
In data set [5] the parent is B1. In words: self-cleavage kobs at 640 uM GlcN6P; higher = faster cleavage; RNA array. An outline of the steps:
as §1

In data set [6] the parent is B1. In words: self-cleavage kobs at 2500 uM GlcN6P; higher = faster cleavage; RNA array. An outline of the steps:
as §1

Variants of B1 are the subject of data set [7]. Nature of the data set: self-cleavage kobs at 10000 uM GlcN6P; higher = faster cleavage; RNA array. The method in brief: as §1

As for G29A, in the data set with glucosamine-6-phosphate [1], the kcat is 0.00814 ± 0.00078 s⁻¹. The Michaelis constant (KM) with glucosamine-6-phosphate [2] is 1590 ± 200 µM. Further, the “self-cleavage kobs at 40 uM GlcN6P” value with glucosamine-6-phosphate [3] stood at 0.000207 ± 4.5e-06 s⁻¹. Besides, the “self-cleavage kobs at 160 uM GlcN6P” value with glucosamine-6-phosphate [4] came to 0.000639 ± 6.2e-05 s⁻¹. Further, in the data set with glucosamine-6-phosphate [5], the “self-cleavage kobs at 640 uM GlcN6P” value came to 0.00201 ± 9.3e-05 s⁻¹. Besides, the “self-cleavage kobs at 2500 uM GlcN6P” value with glucosamine-6-phosphate [6] amounted to 0.00558 ± 0.00024 s⁻¹. In the data set with glucosamine-6-phosphate [7], the “self-cleavage kobs at 10000 uM GlcN6P” value is 0.00697 ± 0.00023 s⁻¹.

As to A14C U30G, in the data set with glucosamine-6-phosphate [1], the kcat turned out to be 0.00408 ± 0.001 s⁻¹. In the data set with glucosamine-6-phosphate [2], the KM amounted to 5380 ± 1800 µM. The “self-cleavage kobs at 40 uM GlcN6P” value in the data set with glucosamine-6-phosphate [3] came out at 5.32e-05 ± 1.3e-05 s⁻¹. In the data set with glucosamine-6-phosphate [4], the “self-cleavage kobs at 160 uM GlcN6P” value amounted to 0.000107 ± 2e-05 s⁻¹. In addition, in the data set with glucosamine-6-phosphate [5], the “self-cleavage kobs at 640 uM GlcN6P” value was 0.000417 ± 7.1e-05 s⁻¹. Further, in the data set with glucosamine-6-phosphate [6], the “self-cleavage kobs at 2500 uM GlcN6P” value amounted to 0.00127 ± 0.00034 s⁻¹. Further, the “self-cleavage kobs at 10000 uM GlcN6P” value with glucosamine-6-phosphate [7] amounted to 0.00267 ± 0.00036 s⁻¹.

Take U54C C68G: the turnover number (kcat) in the data set with glucosamine-6-phosphate [1] was 8.49e-05 ± 1.1e-05 s⁻¹. Also, the “self-cleavage kobs at 640 uM GlcN6P” value in the data set with glucosamine-6-phosphate [5] was found to be 4.44e-05 ± 1e-05 s⁻¹. For the same variant, the “self-cleavage kobs at 2500 uM GlcN6P” value in the data set with glucosamine-6-phosphate [6] amounted to 9.2e-05 ± 1.4e-05 s⁻¹. In addition, the “self-cleavage kobs at 10000 uM GlcN6P” value with glucosamine-6-phosphate [7] is 7.49e-05 ± 1e-05 s⁻¹.

Regarding G37A A39C, the catalytic constant (kcat) in the data set with glucosamine-6-phosphate [1] was 0.00108 ± 0.0001 s⁻¹. The Michaelis-Menten constant (KM) with glucosamine-6-phosphate [2] turned out to be 4350 ± 560 µM. The “self-cleavage kobs at 160 uM GlcN6P” value in the data set with glucosamine-6-phosphate [4] was found to be 3.21e-05 ± 1.1e-05 s⁻¹. Besides, the “self-cleavage kobs at 640 uM GlcN6P” value with glucosamine-6-phosphate [5] is 0.000144 ± 1.8e-05 s⁻¹. For the same variant, the “self-cleavage kobs at 2500 uM GlcN6P” value with glucosamine-6-phosphate [6] was found to be 0.000399 ± 6e-05 s⁻¹. Also, the “self-cleavage kobs at 10000 uM GlcN6P” value in the data set with glucosamine-6-phosphate [7] is 0.000742 ± 0.00013 s⁻¹.

Consider A15G A48U, for which the turnover number (kcat) with glucosamine-6-phosphate [1] amounted to 0.000853 ± 8.9e-05 s⁻¹. Further, in the data set with glucosamine-6-phosphate [2], the KM was 3930 ± 590 µM. Moreover, in the data set with glucosamine-6-phosphate [4], the “self-cleavage kobs at 160 uM GlcN6P” value came out at 3.92e-05 ± 9.3e-06 s⁻¹. Besides, the “self-cleavage kobs at 640 uM GlcN6P” value with glucosamine-6-phosphate [5] was determined as 0.000113 ± 1.4e-05 s⁻¹. Further, in the data set with glucosamine-6-phosphate [6], the “self-cleavage kobs at 2500 uM GlcN6P” value was determined as 0.000349 ± 4.7e-05 s⁻¹. For the same variant, the “self-cleavage kobs at 10000 uM GlcN6P” value in the data set with glucosamine-6-phosphate [7] is 0.000604 ± 8.6e-05 s⁻¹.

For C8U C34U G35U C70A, the kcat with glucosamine-6-phosphate [1] is less than 1e-05 s⁻¹. Also, in the data set with glucosamine-6-phosphate [3], the “self-cleavage kobs at 40 uM GlcN6P” value was less than 1e-05 s⁻¹.

Consider A39U C50U, for which the catalytic constant (kcat) in the data set with glucosamine-6-phosphate [1] came to 4.51e-05 ± 4.1e-06 s⁻¹. Also, the KM in the data set with glucosamine-6-phosphate [2] came out at 1250 ± 570 µM. Moreover, in the data set with glucosamine-6-phosphate [6], the “self-cleavage kobs at 2500 uM GlcN6P” value is 3.23e-05 ± 9.4e-06 s⁻¹. Further, the “self-cleavage kobs at 10000 uM GlcN6P” value in the data set with glucosamine-6-phosphate [7] was 3.95e-05 ± 7.1e-06 s⁻¹.

For A14U C16A, the kcat with glucosamine-6-phosphate [1] amounted to 0.000551 ± 6.3e-05 s⁻¹. In the data set with glucosamine-6-phosphate [2], the KM was 1840 ± 400 µM. Further, the “self-cleavage kobs at 160 uM GlcN6P” value with glucosamine-6-phosphate [4] stood at 5.14e-05 ± 1.1e-05 s⁻¹. The “self-cleavage kobs at 640 uM GlcN6P” value with glucosamine-6-phosphate [5] was found to be 0.000126 ± 1.9e-05 s⁻¹. Further, the “self-cleavage kobs at 2500 uM GlcN6P” value in the data set with glucosamine-6-phosphate [6] came out at 0.000363 ± 4.8e-05 s⁻¹. For the same variant, the “self-cleavage kobs at 10000 uM GlcN6P” value in the data set with glucosamine-6-phosphate [7] is 0.000451 ± 5.1e-05 s⁻¹.

For the variant C58G G63A, the kcat with glucosamine-6-phosphate [1] is less than 1e-05 s⁻¹. Besides, the “self-cleavage kobs at 40 uM GlcN6P” value with glucosamine-6-phosphate [3] is less than 1e-05 s⁻¹.

Regarding G32C C50U, the kcat with glucosamine-6-phosphate [1] is less than 1e-05 s⁻¹. In the data set with glucosamine-6-phosphate [5], the “self-cleavage kobs at 640 uM GlcN6P” value was less than 1e-05 s⁻¹. Also, in the data set with glucosamine-6-phosphate [7], the “self-cleavage kobs at 10000 uM GlcN6P” value is less than 1e-05 s⁻¹.

For the variant A33C U54C, the kcat with glucosamine-6-phosphate [1] was 0.00039 ± 4.2e-05 s⁻¹. In addition, the KM with glucosamine-6-phosphate [2] was determined as 1950 ± 360 µM. The “self-cleavage kobs at 640 uM GlcN6P” value with glucosamine-6-phosphate [5] is 0.0001 ± 1.7e-05 s⁻¹. In addition, the “self-cleavage kobs at 2500 uM GlcN6P” value with glucosamine-6-phosphate [6] amounted to 0.000217 ± 3.9e-05 s⁻¹. For the same variant, the “self-cleavage kobs at 10000 uM GlcN6P” value with glucosamine-6-phosphate [7] stood at 0.000325 ± 9.2e-05 s⁻¹.

For the variant U31A C70G, in the data set with glucosamine-6-phosphate [1], the catalytic constant (kcat) is 0.000226 ± 2.5e-05 s⁻¹. For the same variant, the Michaelis-Menten constant (KM) with glucosamine-6-phosphate [2] is 570 ± 170 µM. For the same variant, in the data set with glucosamine-6-phosphate [4], the “self-cleavage kobs at 160 uM GlcN6P” value worked out at 6.6e-05 ± 1.6e-05 s⁻¹. In addition, the “self-cleavage kobs at 640 uM GlcN6P” value in the data set with glucosamine-6-phosphate [5] was determined as 0.000116 ± 1.3e-05 s⁻¹. Further, the “self-cleavage kobs at 2500 uM GlcN6P” value with glucosamine-6-phosphate [6] came out at 0.000169 ± 2.4e-05 s⁻¹. In addition, the “self-cleavage kobs at 10000 uM GlcN6P” value with glucosamine-6-phosphate [7] is 0.000235 ± 3.2e-05 s⁻¹.

Take U30A U47A: the catalytic constant (kcat) with glucosamine-6-phosphate [1] came to 0.00539 ± 0.0011 s⁻¹. Also, the KM in the data set with glucosamine-6-phosphate [2] was 3150 ± 930 µM. Also, the “self-cleavage kobs at 160 uM GlcN6P” value with glucosamine-6-phosphate [4] worked out at 0.000206 ± 5.9e-05 s⁻¹. The “self-cleavage kobs at 640 uM GlcN6P” value in the data set with glucosamine-6-phosphate [5] is 0.000968 ± 0.00012 s⁻¹. For the same variant, in the data set with glucosamine-6-phosphate [6], the “self-cleavage kobs at 2500 uM GlcN6P” value amounted to 0.0025 ± 0.00032 s⁻¹. Moreover, in the data set with glucosamine-6-phosphate [7], the “self-cleavage kobs at 10000 uM GlcN6P” value was found to be 0.00373 ± 0.00086 s⁻¹.

For the variant A6C U55C, the catalytic constant (kcat) in the data set with glucosamine-6-phosphate [1] was 0.000127 ± 4e-05 s⁻¹. Also, the “self-cleavage kobs at 2500 uM GlcN6P” value with glucosamine-6-phosphate [6] stood at 3.24e-05 ± 1.2e-05 s⁻¹. Moreover, the “self-cleavage kobs at 10000 uM GlcN6P” value in the data set with glucosamine-6-phosphate [7] is 7.95e-05 ± 1.6e-05 s⁻¹.

Consider C68U C71A, for which the kcat in the data set with glucosamine-6-phosphate [1] came out at 1.12e-05 ± 6.7e-07 s⁻¹.

On to U56C C58G, for which, in the data set with glucosamine-6-phosphate [1], the kcat was 2.76e-05 ± 8.3e-06 s⁻¹.
